To fix the notation:
B1: HNRNPA1 (protein, UniProt P09651 1-372, looked up)
Heterogeneous nuclear …: MSKSESPKEPEQLRKLFIGGLSFETTDESLRSHFEQWGTLTDCVVMRDPNTKRSRGFGFVTYATVEEVDAAMNARPHKVDGRVVEPKRAVSREDSQRPGAHLTVKKIFVGGIKEDTEEHHLRDYFEQYGKIEVIEIMTDRGSGKKRGFAFVTFDDHDSVDKIVIQKYHTVNGHNCEVRKALSKQEMASASSSQRGRSGSGNFGGGRGGGFGGNDNFGRGGNFSGRGGFGGSRGGGGYGGSGDGYNGFGNDGGYGGGGPGYSGGSRGYGSGGQGYGNQGSGYGGSGSYDSYNNGGGGGFGGGSGSNFGGGGSYNDFGNYNNQSSNFGPMKGGNFGGRSSGPYGGGGQYFAKPRNQGGYGGSSSSSSYGSGRRF
B2: PUM1: host protein, UniProt Q14671 (protein, UniProt Q14671 2-1186, looked up)
Pumilio homolog 1: SVACVLKRKAVLWQDSFSPHLKHHPQEPANPNMPVVLTSGTGSQAQPQPAANQALAAGTHSSPVPGSIGVAGRSQDDAMVDYFFQRQHGEQLGGGGSGGGGYNNSKHRWPTGDNIHAEHQVRSMDELNHDFQALALEGRAMGEQLLPGKKFWETDESSKDGPKGIFLGDQWRDSAWGTSDHSVSQPIMVQRRPGQSFHVNSEVNSVLSPRSESGGLGVSMVEYVLSSSPGDSCLRKGGFGPRDADSDENDKGEKKNKGTFDGDKLGDLKEEGDVMDKTNGLPVQNGIDADVKDFSRTPGNCQNSANEVDLLGPNQNGSEGLAQLTSTNGAKPVEDFSNMESQSVPLDPMEHVGMEPLQFDYSGTQVPVDSAAATVGLFDYNSQQQLFQRPNALAVQQLTAAQQQQYALAAAHQPHIGLAPAAFVPNPYIISAAPPGTDPYTAGLAAAATLGPAVVPHQYYGVTPWGVYPASLFQQQAAAAAAATNSANQQTTPQAQQGQQQVLRGGASQRPLTPNQNQQGQQTDPLVAAAAVNSALAFGQGLAAGMPGYPVLAPAAYYDQTGALVVNAGARNGLGAPVRLVAPAPVIISSSAAQAAVAAAAASANGAAGGLAGTTNGPFRPLGTQQPQPQPQQQPNNNLASSSFYGNNSLNSNSQSSSLFSQGSAQPANTSLGFGSSSSLGATLGSALGGFGTAVANSNTGSGSRRDSLTGSSDLYKRTSSSLTPIGHSFYNGLSFSSSPGPVGMPLPSQGPGHSQTPPPSLSSHGSSSSLNLGGLTNGSGRYISAAPGAEAKYRSASSASSLFSPSSTLFSSSRLRYGMSDVMPSGRSRLLEDFRNNRYPNLQLREIAGHIMEFSQDQHGSRFIQLKLERATPAERQLVFNEILQAAYQLMVDVFGNYVIQKFFEFGSLEQKLALAERIRGHVLSLALQMYGCRVIQKALEFIPSDQQNEMVRELDGHVLKCVKDQNGNHVVQKCIECVQPQSLQFIIDAFKGQVFALSTHPYGCRVIQRILEHCLPDQTLPILEELHQHTEQLVQDQYGNYVIQHVLEHGRPEDKSKIVAEIRGNVLVLSQHKFASNVVEKCVTHASRTERAVLIDEVCTMNDGPHSALYTMMKDQYANYVVQKMIDVAEPGQRKIVMHKIRPHIATLRKYTYGKHILAKLEKYYMKNGVDLGPICGPPNGII
B3: SFPQ: host protein, UniProt P23246 (protein, UniProt P23246 1-707, looked up)
Splicing factor, proline- and …: MSRDRFRSRGGGGGGFHRRGGGGGRGGLHDFRSPPPGMGLNQNRGPMGPGPGQSGPKPPIPPPPPHQQQQQPPPQQPPPQQPPPHQPPPHPQPHQQQQPPPPPQDSSKPVVAQGPGPAPGVGSAPPASSSAPPATPPTSGAPPGSGPGPTPTPPPAVTSAPPGAPPPTPPSSGVPTTPPQAGGPPPPPAAVPGPGPGPKQGPGPGGPKGGKMPGGPKPGGGPGLSTPGGHPKPPHRGGGEPRGGRQHHPPYHQQHHQGPPPGGPGGRSEEKISDSEGFKANLSLLRRPGEKTYTQRCRLFVGNLPADITEDEFKRLFAKYGEPGEVFINKGKGFGFIKLESRALAEIAKAELDDTPMRGRQLRVRFATHAAALSVRNLSPYVSNELLEEAFSQFGPIERAVVIVDDRGRSTGKGIVEFASKPAARKAFERCSEGVFLLTTTPRPVIVEPLEQLDDEDGLPEKLAQKNPMYQKERETPPRFAQHGTFEYEYSQRWKSLDEMEKQQREQVEKNMKDAKDKLESEMEDAYHEHQANLLRQDLMRRQEELRRMEELHNQEMQKRKEMQLRQEEERRRREEEMMIRQREMEEQMRRQREESYSRMGYMDPRERDMRMGGGGAMNMGDPYGSGGQKFPPLGGGGGIGYEANPGVPPATMSGSMMGSDMRTERFGQGGAGPVGGQGPRGMGPGTPAGYGRGREEYEGPNKKPRF
B4: HNRNPUL2: host protein, UniProt Q1KMD3 (protein, UniProt Q1KMD3 1-747, looked up)
Heterogeneous nuclear …: MEVKRLKVTELRSELQRRGLDSRGLKVDLAQRLQEALDAEMLEDEAGGGGAGPGGACKAEPRPVAASGGGPGGDEEEDEEEEEEDEEALLEDEDEEPPPAQALGQAAQPPPEPPEAAAMEAAAEPDASEKPAEATAGSGGVNGGEEQGLGKREEDEPEERSGDETPGSEVPGDKAAEEQGDDQDSEKSKPAGSDGERRGVKRQRDEKDEHGRAYYEFREEAYHSRSKSPLPPEEEAKDEEEDQTLVNLDTYTSDLHFQVSKDRYGGQPLFSEKFPTLWSGARSTYGVTKGKVCFEAKVTQNLPMKEGCTEVSLLRVGWSVDFSRPQLGEDEFSYGFDGRGLKAENGQFEEFGQTFGENDVIGCFANFETEEVELSFSKNGEDLGVAFWISKDSLADRALLPHVLCKNCVVELNFGQKEEPFFPPPEEFVFIHAVPVEERVRTAVPPKTIEECEVILMVGLPGSGKTQWALKYAKENPEKRYNVLGAETVLNQMRMKGLEEPEMDPKSRDLLVQQASQCLSKLVQIASRTKRNFILDQCNVYNSGQRRKLLLFKTFSRKVVVVVPNEEDWKKRLELRKEVEGDDVPESIMLEMKANFSLPEKCDYMDEVTYGELEKEEAQPIVTKYKEEARKLLPPSEKRTNRRNNRNKRNRQNRSRGQGYVGGQRRGYDNRAYGQQYWGQPGNRGGYRNFYDRYRGDYDRFYGRDYEYNRYRDYYRQYNRDWQSYYYHHPQDRDRYYRNYYGYQGYR
B5: RTCB (protein, UniProt Q9Y3I0 1-505, looked up)
RNA-splicing ligase RtcB …: MSRSYNDELQFLEKINKNCWRIKKGFVPNMQVEGVFYVNDALEKLMFEELRNACRGGGVGGFLPAMKQIGNVAALPGIVHRSIGLPDVHSGYGFAIGNMAAFDMNDPEAVVSPGGVGFDINCGVRLLRTNLDESDVQPVKEQLAQAMFDHIPVGVGSKGVIPMNAKDLEEALEMGVDWSLREGYAWAEDKEHCEEYGRMLQADPNKVSARAKKRGLPQLGTLGAGNHYAEIQVVDEIFNEYAAKKMGIDHKGQVCVMIHSGSRGLGHQVATDALVAMEKAMKRDKIIVNDRQLACARIASPEGQDYLKGMAAAGNYAWVNRSSMTFLTRQAFAKVFNTTPDDLDLHVIYDVSHNIAKVEQHVVDGKERTLLVHRKGSTRAFPPHHPLIAVDYQLTGQPVLIGGTMGTCSYVLTGTEQGMTETFGTTCHGAGRALSRAKSRRNLDFQDVLDKLADMGIAIRVASPKLVMEEAPESYKNVTDVVNTCHDAGISKKAIKLRPIAVIKG

One experiment has as its system SARS-CoV-2 gRNA. Format: binding. Conditions: […]; LC-MS/MS; Probe I sample (first 199 lines of Table 2).
B1: the “target (unweighted spectral count of the protein in the RNP capture)” value is given as 97.
Still for that read-out and setting: next, B2: 6; B3: 50; B4: 6.
The same measure, in the same setting: next, B5: 6.

The next experiment concerns SARS-CoV-2 gRNA and sgRNAs. The format is binding. As to conditions: Probe II capture; […]; LC-MS/MS LFQ.
For the molecule B1, the “target (unweighted spectral count in RNP capture)” value is recorded as 74.
The same measure, in the same setting: next, B2: 20.
On the same count and under the same terms, next, B3: 38.
On the same count and under the same terms, for B5 the value was 14.

Still in this experiment, the particulars now being: […]; LC-MS/MS label-free quantification; probe pool not given.
Turning to B4, the “target (unweighted spectral count of the protein in the RNP capture experiment)” value is 5.

Staying with this experiment, now noted: no-probe control pull-down, used as background for Probe II.
As for B2, the “background (unweighted spectral count in control)” value came to 1.
Still for that read-out and setting: for B3 the value was 1; for B5, 1.

Staying with this experiment, now noted: protein background of the control (e.g. no-probe) experiment; […].
As to B4, the “back-ground (unweighted spectral count of the protein in the control experiment)” value turned out to be 1.

In a further experiment the test system is gRNA of HCoV-OC43. The format is binding. Conditions: type g_36_m; HCoV-OC43-infected HCT-8 cells, 36 hpi, Probe I.
Consider B2, for which the “target (spectral count)” value came out at 11.
The same measure, in the same setting: for B3 the value was 33; for B4, 24.

The experiment is the same for the next values; noted with them: type g_36_m; uninfected-probe control, 36 hpi, Probe I.
In the case of B2, the “background (spectral count)” value came out at 1.
The same measure, in the same setting: next, B3: 7.
For the molecule B4, the “background (spectral count)” value is on record as 3.

The experiment is the same for the next values; noted with them: type n_48_v: 48 hours post-infection, infected cells, OC43 Probe I; unweighted spectral count.
Regarding B1, the “target (spectral count, OC43 Probe I RNP capture)” value is listed as 82.
The same measure, in the same setting: next, B2: 6; B3: 39; B4: 33.
As to B5, the “target (spectral count, OC43 Probe I RNP capture)” value came out at 7.

The same experiment, now with this note: type n_48_v: 48 hours post-infection, no-probe control on infected cells.
On to B1, for which the “background (spectral count, no-probe control)” value is reported as 7.
On the same count and under the same terms, for B2 the value was 1; for B3, 7.
For B4, the “background (spectral count, no-probe control)” value is reported as 2.
Same read-out and setting: for B5 the value was 1.

For another experiment, the system named is HCoV-OC43 gRNA and sgRNA. Format: binding. Conditions: 24 hpi; type n_24_v; tested against no-probe control; FDR<10%.
Regarding B5, the “target (unweighted spectral count, OC43 Probe II capture)” value is recorded as 4.

The experiment is the same for the next values; noted with them: 36 hpi; type n_36_v; tested against no-probe control; FDR<10%.
As to B1, the “target (unweighted spectral count, OC43 Probe II capture)” value amounted to 39.
The same measure, in the same setting: for B2 the value was 6; for B3, 36.
The same measure, in the same setting: for B4 the value was 14; for B5, 6.

The experiment is the same for the next values; noted with them: OC43 Probe II, 12 hpi (type n_12_v), infected cells; tested against no-probe control.
Take B1: the “target (unweighted spectral count)” value worked out at 24.
As for B4, the “target (unweighted spectral count)” value is listed as 6.

The same experiment, now with this note: OC43 Probe II, 24 hpi (type n_24_v), infected cells; tested against no-probe control.
On to B1, for which the “target (unweighted spectral count)” value came out at 31.
Same read-out and setting: for B3 the value was 16.
The same measure, in the same setting: next, B4: 11.

Staying with this experiment, now noted: type n_48_v; 48 hpi; OC43 Probe II capture on infected cells.
On to B1, for which the “target (unweighted spectral count, OC43 Probe II)” value was 53.
Turning to B2, the “target (unweighted spectral count, OC43 Probe II)” value was 6.
The same measure, in the same setting: for B3 the value was 33; for B4, 25.
As for B5, the “target (unweighted spectral count, OC43 Probe II)” value is on record as 7.

Staying with this experiment, now noted: type n_48_v; 48 hpi; no-probe control on infected cells.
B1: the “background (unweighted spectral count, no-probe control)” value was determined as 7.
Still for that read-out and setting: for B2 the value was 1.
Take B3: the “background (unweighted spectral count, no-probe control)” value is 7.
Same read-out and setting: next, B4: 2; B5: 1.

Still in this experiment, the particulars now being: type s_36_m; HCoV-OC43-infected HCT-8 cells, 36 hpi, Probe II.
Consider B3, for which the “target (spectral count)” value is 36.
As to B4, the “target (spectral count)” value came out at 14.

The same experiment, now with this note: type s_36_m; uninfected-probe control, 36 hpi, Probe II.
On to B3, for which the “background (spectral count)” value is reported as 3.
Take B4: the “background (spectral count)” value amounted to 1.
